Data published in patent US12723105.

Columns and labels:
CD47 [1] = molecular target: CD47 (UniProt Q08722); assay: competitive ELISA vs SIRPα
CD47 [2] = molecular target: CD47 (UniProt Q08722); assay: flow cytometry, CD47-overexpressing cells

- IC50 (CD47 [1]): 0.499 nM
- EC50 (CD47 [2]): 5.59 nM
Substance: B6H12
